In data set [1] the test system is D76A mutant myostatin pro peptide.
Data set [2] relates to myostatin pro peptide (wild type).

Results on one substance are retold here after patent US20040138118.

Sequence of D76A mutant myostatin pro peptide (chain, as listed by the source D76A): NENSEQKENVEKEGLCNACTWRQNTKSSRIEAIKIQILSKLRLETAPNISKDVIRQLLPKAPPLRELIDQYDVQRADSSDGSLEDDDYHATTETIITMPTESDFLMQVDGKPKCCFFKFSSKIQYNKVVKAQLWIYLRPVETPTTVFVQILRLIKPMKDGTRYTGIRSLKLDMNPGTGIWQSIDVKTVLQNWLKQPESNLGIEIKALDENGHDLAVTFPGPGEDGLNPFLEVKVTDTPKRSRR

For the substance mammalian Tolloid (mTLD), the “proteolytic cleavage of the mutant pro peptide in the latent complex, western blot (FIGS. 3D and E)” value in data set [1] was “completely resistant to proteolysis by each of the four proteinases”. In addition, in data set [2], the “partial proteolytic cleavage of the pro peptide in the latent complex, western blot (FIG. 3E)” value is “mTLD was consistently less active than the other three”; the “proteolytic cleavage of free pro peptide” value was “All four of these proteinases also cleaved pro peptide that had been purified away from the C-terminal dimer”; the “proteolytic cleavage, SDS-PAGE and western blot with anti-pro peptide antiserum” value is on record as “A discrete proteolytic cleavage product of the pro peptide was detected in each reaction containing one of the four proteases”.
